Results reported in patent US20130074217A1 (NUTECH VENTURES, published 2013).

Legend:
EFR-YFPc / EFR-YFPn = target: T1, EFR-YFPc / EFR-YFPn (Arabidopsis thaliana, UniProt C0LGT6 25-1031); test: bimolecular fluorescence complementation in N. benthamiana (panel B)
T1 construct: Two BiFC constructs used in both combinations, expressed in N. benthamiana leaves; not shown: split-YFP half (YFPc or YFPn) from the BiFC vector
T1 sequence (looked up): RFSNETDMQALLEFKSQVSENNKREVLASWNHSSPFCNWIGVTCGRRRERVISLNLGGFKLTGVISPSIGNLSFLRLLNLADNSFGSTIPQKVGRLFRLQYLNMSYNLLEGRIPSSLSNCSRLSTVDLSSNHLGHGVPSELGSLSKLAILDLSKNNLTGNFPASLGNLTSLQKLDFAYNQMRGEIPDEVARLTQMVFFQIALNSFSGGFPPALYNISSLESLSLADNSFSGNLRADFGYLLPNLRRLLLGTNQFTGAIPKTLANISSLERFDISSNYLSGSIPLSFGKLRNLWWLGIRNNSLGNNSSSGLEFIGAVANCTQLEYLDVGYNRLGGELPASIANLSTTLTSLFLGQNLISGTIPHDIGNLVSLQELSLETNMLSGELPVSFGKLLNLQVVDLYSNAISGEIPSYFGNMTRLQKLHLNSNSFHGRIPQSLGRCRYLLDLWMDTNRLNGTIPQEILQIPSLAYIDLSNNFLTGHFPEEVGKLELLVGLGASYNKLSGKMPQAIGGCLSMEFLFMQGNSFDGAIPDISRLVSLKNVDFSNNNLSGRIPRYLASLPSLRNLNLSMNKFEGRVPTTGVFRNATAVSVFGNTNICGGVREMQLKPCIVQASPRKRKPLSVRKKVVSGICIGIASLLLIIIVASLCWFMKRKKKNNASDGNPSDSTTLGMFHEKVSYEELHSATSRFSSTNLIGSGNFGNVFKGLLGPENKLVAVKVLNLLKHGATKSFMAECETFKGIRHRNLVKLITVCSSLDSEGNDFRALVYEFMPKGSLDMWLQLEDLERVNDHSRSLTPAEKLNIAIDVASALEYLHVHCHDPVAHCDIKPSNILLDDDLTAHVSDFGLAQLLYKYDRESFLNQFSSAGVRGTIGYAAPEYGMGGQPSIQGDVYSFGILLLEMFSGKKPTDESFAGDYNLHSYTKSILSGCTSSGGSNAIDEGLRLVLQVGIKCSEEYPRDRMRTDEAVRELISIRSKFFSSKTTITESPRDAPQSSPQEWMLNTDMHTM

FLS2-YFPc / FLS2-YFPn = target: T2, FLS2-YFPc / FLS2-YFPn (Arabidopsis thaliana, UniProt Q9FL28 24-1173); test: bimolecular fluorescence complementation in N. benthamiana, with plasmolysis (panel E)
T2 construct: Two BiFC constructs used in both combinations, expressed in N. benthamiana leaves; not shown: split-YFP half (YFPc or YFPn) from the BiFC vector

BAK1-HA = target: T3, BAK1-HA (Arabidopsis thaliana, UniProt Q94F62 26-615); test: co-immunoprecipitation with GFP Trap beads after transient co-expression in N. benthamiana
T3 construct: Transiently expressed in N. benthamiana; also called LRR-RK BAK1; 35S::BAK1-HA; not shown: HA tag
T3 sequence (looked up): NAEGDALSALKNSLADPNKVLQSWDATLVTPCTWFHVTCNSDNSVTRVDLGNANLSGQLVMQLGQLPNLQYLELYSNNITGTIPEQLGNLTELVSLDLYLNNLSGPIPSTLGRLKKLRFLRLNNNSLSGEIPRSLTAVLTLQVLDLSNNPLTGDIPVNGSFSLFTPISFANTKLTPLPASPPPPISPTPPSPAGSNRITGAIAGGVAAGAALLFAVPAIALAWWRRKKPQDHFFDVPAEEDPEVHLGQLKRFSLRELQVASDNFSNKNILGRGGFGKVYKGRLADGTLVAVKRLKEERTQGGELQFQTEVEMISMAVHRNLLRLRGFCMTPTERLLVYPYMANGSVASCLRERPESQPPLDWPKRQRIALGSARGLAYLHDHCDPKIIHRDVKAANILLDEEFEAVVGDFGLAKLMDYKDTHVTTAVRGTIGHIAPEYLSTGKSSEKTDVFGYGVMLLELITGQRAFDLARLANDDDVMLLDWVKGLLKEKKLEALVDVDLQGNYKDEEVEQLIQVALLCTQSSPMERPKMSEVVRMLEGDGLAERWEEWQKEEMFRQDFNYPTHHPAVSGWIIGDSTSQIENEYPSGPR

T2 sequence (Q9FL28 24-1173): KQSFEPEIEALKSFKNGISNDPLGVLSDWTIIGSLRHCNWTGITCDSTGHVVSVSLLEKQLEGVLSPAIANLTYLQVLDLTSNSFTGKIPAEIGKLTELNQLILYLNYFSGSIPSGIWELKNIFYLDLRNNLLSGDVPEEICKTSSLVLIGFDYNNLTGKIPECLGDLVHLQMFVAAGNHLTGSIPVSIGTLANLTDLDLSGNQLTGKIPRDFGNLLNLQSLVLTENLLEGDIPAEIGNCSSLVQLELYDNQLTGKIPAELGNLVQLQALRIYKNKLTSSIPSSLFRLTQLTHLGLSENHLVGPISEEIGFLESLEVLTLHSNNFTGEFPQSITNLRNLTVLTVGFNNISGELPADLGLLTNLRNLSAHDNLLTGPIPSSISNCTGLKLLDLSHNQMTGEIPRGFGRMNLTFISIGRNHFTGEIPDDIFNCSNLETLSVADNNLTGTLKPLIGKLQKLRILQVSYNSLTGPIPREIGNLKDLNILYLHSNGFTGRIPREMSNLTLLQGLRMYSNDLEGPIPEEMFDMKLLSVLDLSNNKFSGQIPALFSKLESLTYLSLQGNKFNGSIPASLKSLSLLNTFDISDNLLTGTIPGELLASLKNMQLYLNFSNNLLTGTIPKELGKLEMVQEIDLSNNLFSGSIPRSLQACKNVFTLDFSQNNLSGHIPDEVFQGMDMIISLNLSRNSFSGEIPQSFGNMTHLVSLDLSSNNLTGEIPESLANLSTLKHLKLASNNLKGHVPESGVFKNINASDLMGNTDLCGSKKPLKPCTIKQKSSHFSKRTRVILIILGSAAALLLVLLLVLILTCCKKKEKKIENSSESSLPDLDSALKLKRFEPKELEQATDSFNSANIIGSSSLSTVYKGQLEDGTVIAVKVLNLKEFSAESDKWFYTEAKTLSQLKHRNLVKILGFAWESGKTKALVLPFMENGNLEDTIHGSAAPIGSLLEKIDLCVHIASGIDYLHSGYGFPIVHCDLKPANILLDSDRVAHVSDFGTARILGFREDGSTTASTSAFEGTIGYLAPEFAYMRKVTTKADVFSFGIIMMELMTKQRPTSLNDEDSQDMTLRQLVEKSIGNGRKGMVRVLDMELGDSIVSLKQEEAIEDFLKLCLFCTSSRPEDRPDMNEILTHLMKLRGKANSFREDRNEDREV

Binder	binding result (EFR-YFPc / EFR-YFPn)	binding result (FLS2-YFPc / FLS2-YFPn)	binding result (BAK1-HA)
GRP7-YFPn / GRP7-YFPc (other, Two BiFC constructs (N- or C-terminal YFP half) used in both combinations; Results are reported for them together; also called GRP7-YFPn/c; not shown: split-YFP half (YFPn or YFPc) from the pAM-PAT-35S BiFC vector) MASGDVEYRCFVGGLAWATDDRALETAFAQYGDVIDSKIINDRETGRSRGFGFVTFKDEKAMKDAIEGMNGQDLDGRSITVNEAQSRGSGGGGGHRGGGGGGYRSGGGGGYSGGGGSYGGGGGRREGGGGYSGGGGGYSSRGGGGGSYGGGRREGGGGYGGGEGGGYGGSGGGGGW	binds	binds	–
GRP7-eGFP (other, Transiently expressed in N. benthamiana under the 35S promoter; also called 35S::GRP7-eGFP; not shown: C-terminal enhanced green fluorescent protein (eGFP) tag) MASGDVEYRCFVGGLAWATDDRALETAFAQYGDVIDSKIINDRETGRSRGFGFVTFKDEKAMKDAIEGMNGQDLDGRSITVNEAQSRGSGGGGGHRGGGGGGYRSGGGGGYSGGGGSYGGGGGRREGGGGYSGGGGGYSSRGGGGGSYGGGRREGGGGYGGGEGGGYGGSGGGGGW	–	–	no binding
